Assay results as given in publication doi:10.1101/2023.05.05.539533 (bioRxiv, 2023).

T1: PSR2 (untagged, purified from E. coli) (P. sojae, UniProt E0W4V5 18-670)
T1 sequence: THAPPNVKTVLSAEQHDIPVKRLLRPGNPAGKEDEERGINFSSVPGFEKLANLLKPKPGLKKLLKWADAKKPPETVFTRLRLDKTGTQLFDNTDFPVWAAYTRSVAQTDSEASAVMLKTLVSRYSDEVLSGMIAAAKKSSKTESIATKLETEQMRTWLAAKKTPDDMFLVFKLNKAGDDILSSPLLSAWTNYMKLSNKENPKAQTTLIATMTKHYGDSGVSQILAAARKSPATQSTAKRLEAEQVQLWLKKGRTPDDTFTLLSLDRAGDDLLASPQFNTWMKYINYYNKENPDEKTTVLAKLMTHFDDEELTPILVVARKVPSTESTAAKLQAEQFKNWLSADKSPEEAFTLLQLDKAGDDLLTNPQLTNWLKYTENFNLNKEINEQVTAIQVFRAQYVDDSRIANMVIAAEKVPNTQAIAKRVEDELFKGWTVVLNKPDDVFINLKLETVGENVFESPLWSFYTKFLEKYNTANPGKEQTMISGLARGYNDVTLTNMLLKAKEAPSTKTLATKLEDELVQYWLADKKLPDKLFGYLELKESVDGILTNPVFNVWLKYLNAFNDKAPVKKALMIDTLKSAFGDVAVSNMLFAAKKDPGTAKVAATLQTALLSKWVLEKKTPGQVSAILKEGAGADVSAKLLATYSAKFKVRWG


What was measured:
[1] = target: PSR2 (untagged, purified from E. coli) (P. sojae) (UniProt E0W4V5); assay: ITC
[2] = target: ATB’g (Arabidopsis PP2A B subunit) (Arabidopsis thaliana) (UniProt Q8RW96); assay: ITC
Sequence of ATB’g (Arabidopsis PP2A B subunit) (Arabidopsis thaliana) (Q8RW96 whole entry): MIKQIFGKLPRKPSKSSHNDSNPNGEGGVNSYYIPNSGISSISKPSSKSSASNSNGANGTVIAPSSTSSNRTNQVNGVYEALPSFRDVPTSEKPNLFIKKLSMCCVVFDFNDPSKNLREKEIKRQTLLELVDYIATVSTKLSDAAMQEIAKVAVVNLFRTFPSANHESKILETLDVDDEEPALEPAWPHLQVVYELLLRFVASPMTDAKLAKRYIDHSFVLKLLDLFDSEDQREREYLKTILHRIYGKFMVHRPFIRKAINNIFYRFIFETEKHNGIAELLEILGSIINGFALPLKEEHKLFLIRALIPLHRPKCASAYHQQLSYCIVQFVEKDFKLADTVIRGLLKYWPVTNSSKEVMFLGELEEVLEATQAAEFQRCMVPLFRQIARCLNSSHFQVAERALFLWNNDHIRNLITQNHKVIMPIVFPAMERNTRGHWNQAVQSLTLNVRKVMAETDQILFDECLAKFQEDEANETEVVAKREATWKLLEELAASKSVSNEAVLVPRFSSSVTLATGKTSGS

[3] = target: T1, PSR2 (untagged, purified from E. coli); assay: pull-down

| Molecule | Kd [1] | Kd [2] | binding result [3] |
| --- | --- | --- | --- |
| 6×His-PDF1 (full-length PDF1, purified from E. coli) (from UniProt Q9S728 24-306) (natural protein) | 0.35 µM | 3.33 µM |  |
| RCN1 (purified from E. coli) (natural protein) MAMVDEPLYPIAVLIDELKNDDIQLRLNSIRRLSTIARALGEERTRKELIPFLSENSDDDDEVLLAMAEELGVFIPFVGGIEFAHVLLPPLESLCTVEETCVREKAVESLCKIGSQMKENDLVESFVPLVKRLAGGEWFAARVSACGIFHVAYQGCTDVLKTELRATYSQLCKDDMPMVRRAAASNLGKFATTVESTFLIAEIMTMFDDLTKDDQDSVRLLAVEGCAALGKLLEPQDCVARILPVIVNFSQDKSWRVRYMVANQLYELCEAVGPDCTRTDLVPAYVRLLRDNEAEVRIAAAGKVTKFCRLLNPELAIQHILPCVKELSSDSSQHVRSALASVIMGMAPILGKDSTIEHLLPIFLSLLKDEFPDVRLNIISKLDQVNQVIGIDLLSQSLLPAIVELAEDRHWRVRLAIIEYVPLLASQLGIGFFDDKLGALCMQWLQDKVYSIREAAANNLKRLAEEFGPEWAMQHLVPQVLDMVNNPHYLHRMMVLRAISLMAPVMGSEITCSKFLPVVVEASKDRVPNIKFNVAKLLQSLIPIVDQSVVDKTIRQCLVDLSEDPDVDVRYFANQALNSIDGSTAAQS |  |  | binds |
